Reference: the nanobody polyreactivity screen of Harvey et al. (2022)

Experiment: yeast display, Sf9 membrane polyspecificity reagent, FACS + sequencing; frameworks hold sequencing errors
Summary of the method: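 Synthetic nanobody libraries on Saccharomyces cerevisiae BJ5465 were galactose-induced for 36–48 hours, stained 1 hour at 4 °C with 10% biotinylated, detergent-solubilized Sf9 membrane reagent and enriched on streptavidin microbeads. FACS then separated cells into low and high (top ~1%) gates by anti-HA (expression) and streptavidin (reagent binding) fluorescence. Genes were colony-PCR amplified, MiSeq 2 × 250 sequenced and CDR-length filtered. A clone's polyreactivity label is that of its gate of origin.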

Sequence | polyreactivity (PSR sort gate)
QVQLVESGGGLVQAGGSLRLSCAASGSTFTTNAMGWYIQAPGKERELVASITWSGGGTNYADSVKGRFTISRDNAKNTVYLQMNSLKPEDTAVYYCAADYDDSHLRSDYWGQGTQVTVSS | low polyreactivity
QVQLVESGGGLVQAGGSLRLSCAASGSTFTTYAMGWYRQAPGKERELVAVITDSRGTYYADSVKGRFTISRDNAKNTVYLQMHSLKPEDTALYYCNRVFPPTDYEFDSWGQGTQVTVSS | low polyreactivity
QVQLVESGGGLVQAGGSLRLSCAASGSTFTVNAMGWYRQAPGKERELVAAINGSGDITYYADSVTGRFTISRDNAKNTVYLQMNSLKPEDTAVYYCAADQGVPSTYDYWGQGTQVTVSS | low polyreactivity
QVQLVESGGGLVQAGGSLRLSCAASGSTFTVNDMGWYRQAPGKERELVAAITQRDGRTFYADSVKGRFTISRDNAQNTVYLLMNSLKPEDTAVYYCAADYGWYTYGDYDYWGQGTQVTVSS | low polyreactivity
QVQLVESGGGLVQAGGSLRLSCAASGSTFTVYAMGWYRQAPGKERELVAAIRDGSSTNYADSVKGRFTISRDNAKNTVYLQMNSLKPEDTAVYYCNAPYPPTGYGDDDYWGQGTQVTVSS | low polyreactivity
QVQLVESGGGLVQAGGSLRLSCAASGSTFTVYAMGWYRQAPGKERELVAAISWGGGSTNYADSVKGRFTISRDNAKNTVYLQMNSLKPEDTAVYYCNADIDDIIGSWGDYWGQGTQVTVSS | low polyreactivity
QVQLVESGGGLVQAGGSLRLSCAASGSTFTWNVMGWYREAPGKERELVAAIDGSGGDTYYADSVKGRFTISRDHAKNTVYLQMNSLNPEDTAVYYCAAEDAAAYSENDYWGQGTQVTVSS | low polyreactivity
QVQLVESGGGLVQAGGSLRLSCAASGSTFTWYAMGWNRQAPGKERELVADITWRDGSTYYADSVKGRFTISRDNAKNTVYLQMNSLKPEDTAVYYCNARRDYDMDWGQGTQVTVSS | high polyreactivity
QVQLVESGGGLVQAGGSLRLSCAASGSTFTWYAMGWYRQAPGKERELVAAISWSGDSTYYADSVKGRFTISRDNAKNTVYLQMNSLKPEDTAVYYCAAENVYGYDYWGQGTQVTVSS | high polyreactivity
QVQLVESGGGLVQAGGSLRLSCAASGSTFTWYAMGWYRQAPGKERELVARINFSGGSTYADSVKGRFTISRDNAKNTVYLQMNSLKPEDTAVYYCAAVYPGRKARRKYDYWGQGTQVTVSS | low polyreactivity
QVQLVESGGGLVQAGGSLRLSCAASGSTFTWYAMGWYRQAPWKERELVADISYGGGSTYYADSVKGRFTISRDNAKNTVYLQMNSLKPEDTEVYYCAAASYLYLYLLEDYWGQGTQVTVSS | low polyreactivity
QVQLVESGGGLVQAGGSLRLSCAASGSTFTWYGMGWYRQAPGKETELVAAISGSGGRTYYADSVKGRFTISRDNAKNTVYFQMNSLKPEDTAVYYCNADPANPFGTEFEYWGQGTQVTVSS | high polyreactivity
QVQLVESGGGLVQAGGSLRLSCAASGSTFTYNAMGWYRQAPGKERELVASISSGTTTYYADSVKGRFTISRDNAKNTVYLQMNSLKPEDTAVYYCNADYFDYSRPRYDYWGQGTQVTVSS | low polyreactivity
QVQLVESGGGLVQAGGSLRLSCAASGSTFTYNTMGWYRQAPGQERELVAAISSGGSTYYADSVKGRFTFSRDNAKNTVSLQMNSLKPEDTAVYYCAARSRYGESPGYYWGQGTQVTVSS | high polyreactivity
QVQLVESGGGLVQAGGSLRLSCAASGSTFTYYAMGWYRQAPGKERELFAAITFRGDSTYYADSVKGRFTISRDNAKNTVYLQMNILKPEDTAVYYCNADSISSTYYDEDYWGQGTQVTVSS | low polyreactivity
QVQLVESGGGLVQAGGSLRLSCAASGSTFTYYAMGWYRQAPGKERELVAAISNSGTSTYYADSVKGRFTISRDNAKNTVYLQMNSLKPEDTAVYYCNAYSDLFGSYTDLGEYDYWGQGTQVTVSS | low polyreactivity
QVQLVESGGGLVQAGGSLRLSCAASGSTFTYYAMGWYRQAPGKERELVAAISRRGGSTYYADSVKGRFTISRDNAKNTVYLQMNSLKPEDTAVYYCNARLKPLWGGRYDYWGQGTQVTVSS | high polyreactivity
QVQLVESGGGLVQAGGSLRLSCAASGSTFTYYAMGWYRQAPGKERELVAAISRRGGSTYYADSVKGRFTISRDNAKNTVYLQMNSLKPEDTAVYYCNVVIYSYGINGRYDYWGQGTQVTVSS | high polyreactivity
QVQLVESGGGLVQAGGSLRLSCAASGSTFTYYAMGWYRQAPGKERELVAAITSRGGITYYADSVKGRFTISRDNAKNTVYLQMNSLKPEDTAVYYCNAYSQRYGYYYWGQGTQVTVSS | high polyreactivity
QVQLVESGGGLVQAGGSLRLSCAASGSTFTYYAMGWYRQAPGKERELVAAITWSGVSTYYADSVKGRFTISRDNAKNTVYLQMNSLKPEDTAVYYCANGYSYGWWGGFGYWGQGTQVTVSS | high polyreactivity
QVQLVESGGGLVQAGGSLRLSCAASGSTFTYYAMGWYRQSPGKERELVAAISWRGGSTYYADSVKGRFTISRDNAKNTVYLQMNSLKPEDNAVYYCAASRTFYRAVTQTGSPMDYWGQGTQVTVSS | high polyreactivity
QVQLVESGGGLVQAGGSLRLSCAASGSTFVANAMGWYRQAPGKERELVAAIDYDDGGTYYADSVKGRFTISRDNAKNTVYLQMNSLKPEDTAVYYCAADYGDIGAVLHYPVELGYWGQGTQVTVSS | low polyreactivity

Sequence | polyreactivity (PSR sort gate)
QVQLVESGGGLVQAGGSLRLSCAASGSTFVANTMGWYRQAPGKERELVATIRRSGGSTYYADSVKGRFTISRDNAKNTVYLQMNSLKPEDTAVYYCAKDSRWPSYRGMDYWGQGTQVTVSS | low polyreactivity
QVQLVESGGGLVQAGGSLRLSCAASGSTFVAYAMGSYRQAPGKERELVAAISASGVRTYYADSVKGRFTISRDNAKNTVYLQMNSLKPEDTAVYYCAATVFRKYRYGYWGQGTQVTVSS | high polyreactivity
QVQLVESGGGLVQAGGSLRLSCAASGSTFVDNAMGWYRQAPGKEREFVAAIDWSGGSTFYADSVKGRFTISRDNAKNTVYLQMNSLKPEDTAVYYCNADSYPQGDYWGQGSQVTVSS | low polyreactivity
QVQLVESGGGLVQAGGSLRLSCAASGSTFVDNAMGWYRQAPGKERELVAAIRDGSGGSTRYADSVKGRFTISRDNAKNTVYLQMNSLKPEDTAVYYCAADGYITVNYLRYDYWGQGTQVTVSS | low polyreactivity
QVQLVESGGGLVQAGGSLRLSCAASGSTFVDNAMGWYRQAPGKERELVAAISTRGGTTYYADSVKGRFTISRDNAKNTVYLQMKSLKAEDTAVYYCAAEIFTSVWWRWVDGDYWGQGTQVTVSS | high polyreactivity
QVQLVESGGGLVQAGGSLRLSCAASGSTFVDNAMGWYRQAPGKERELVADISSGGSTYYADSVKGRFTISRDNAKNTVYLQMNSLKPEDTAVYYCNAESFYWWHSYDYWGQGTQVTVSS | high polyreactivity
QVQLVESGGGLVQAGGSLRLSCAASGSTFVDNAMGWYRQAPGKERELVASITYRGGSTYYADSVKGRFTISRDNAKNTVYLQMNSLKPEDTAVYYCAKGHYFKYDYWGQGTQVTVSS | low polyreactivity
QVQLVESGGGLVQAGGSLRLSCAASGSTFVDNDMGWYRQAPGKERELVAAIDQSGGSTSYADSVKGRFTISRDNAKNTVYLQMNSLKPEDTAVYYCATPSYTTAYVEGDYWGQGTQVTVSS | low polyreactivity
QVQLVESGGGLVQAGGSLRLSCAASGSTFVENAMGWYRQAPGKERELVAAISSSGDSTFYADSVKGRFTISRDNAKNTVYLKMNSLKPEDTAVYYCAADRRINYDGLDMDYWGQGTQVTVSS | low polyreactivity
QVQLVESGGGLVQAGGSLRLSCAASGSTFVFNAMGWYRPAPGKERELVAAISSTGSTYYADSVKGRFTISRDNAKNTVYLQMNSLKPEDTAVYYCAAPYGFSYKGATYDSWGQGTQVTVSS | high polyreactivity
QVQLVESGGGLVQAGGSLRLSCAASGSTFVGNAMGWYRQAPGKERELVATIRYSDGSTYYADSVKGRFTISRDNAKNTVYLQMNSLKPEDTAVYYCATRVKQKGPYRYSARYFYTYNYWGQGTQVTVSS | high polyreactivity
QVQLVESGGGLVQAGGSLRLSCAASGSTFVGYAMGWYRQAPGKERELVAAITSRGGRTYYADSVKGRFTISRDNAKNTVYLQMNSLKPEDTAVYYCNAKRPRIGVTRYDYWGQGTQVTVSS | high polyreactivity
QVQLVESGGGLVQAGGSLRLSCAASGSTFVGYAMGWYRQAPGKERELVADIDSIGGSTYYADSVKGRFTISRDNAKNTVYLQMNSLKPEDTAVDYCAARRFDTALVLYDYWGQGTQVTVSS | low polyreactivity
QVQLVESGGGLVQAGGSLRLSCAASGSTFVGYARGWYRQEPGNETELVAAISGSGTSTYYADSVKGRFTISLDNAKNTVYLQMNSLKPEDTAVYYCKADPIFVYSSYNYWGQGTQVTVSS | low polyreactivity
QVQLVESGGGLVQAGGSLRLSCAASGSTFVHYAMGWYRQAPGKERELVAAINDGGSTHYADSVKGRFTISRDNAKNTVYLQMNSLKPEDTAVYYCAAEYVWYRYPDYWGAYDYWGQGTQVTVSS | low polyreactivity
QVQLVESGGGLVQAGGSLRLSCAASGSTFVIYAMGWYRQAPGKERELVAAIRRRGGSTYYADSVKGRFTISRDNAKNTVYLQMNSLKPEDSAVYYCATAGQGAFWGQGTQVTVSS | high polyreactivity
QVQLVESGGGLVQAGGSLRLSCAASGSTFVIYAMGWYRQAPGKERELVAAITFSGGRTYYADSVKGRFTISRDNAKNTVYLQMNSLKPEDTAVYYCNARHRNLAEYDYWGQGTQVTVSS | low polyreactivity
QVQLVESGGGLVQAGGSLRLSCAASGSTFVKNVMGWYRQAPGKERELVAGITRGGSTYYADSVKGRFTISRDNAKNTVYLQMNSLKPEDTAVYYCNRVRYPSYDYWGQGTQVTVSS | high polyreactivity
QVQLVESGGGLVQAGGSLRLSCAASGSTFVKSAMGLYRQAPGKERELVAAINWSGGNTYYADSVKGRFKISRYNAKNTVYLQMNSLKPEETAVYYCNADAYRSDFDYWGQGTQVTVSS | high polyreactivity
QVQLVESGGGLVQAGGSLRLSCAASGSTFVLNAMGWYRQAPGKERELVAAITGSGSTKYADSVKGLFTISRDNAKNTVYLQMNSLKPEDTAVYYCATAAVYPIPFGYWGQGTQVTVSS | low polyreactivity
QVQLVESGGGLVQAGGSLRLSCAASGSTFVLYAMGWYRQAPGKERELVATISSGGSTYYADSVKGRFTISRDNAKNTVYLQMNSLKPEDTAVYYCAASYSRFVDWIGDPGYDYWGQGTQVTVSS | low polyreactivity
